experiment: First-order nonenzymatic deamidation of pentapeptides in Tris buffer; assay type: physicochemical; conditions: pH 7.4, 37.0° C., 0.15 M Tris HCl; Asn pentapeptides
How it was run: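 Pentapeptides containing Asn or Gln in varied flanking sequences incubated at 37° C., pH 7.4, 0.15 M Tris buffer; first-order deamidation rates measured. Some Asn values estimated from remaining data; many Gln values derived from surface fitting rather than measured.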

Substance | First-Order Deamidation Halftimes of GlyXxxAsnYyyGly
GlyValAsnProGly (GVNPG; printed: GlyValAsnProGly) | 8030 days
GlyTyrAsnMetGly (GYNMG; printed: GlyTyrAsnMetGly) | 64.3 days
GlyIleAsnArgGly (GINRG; printed: GlyIleAsnArgGly) | 66.4 days
GlyHisAsnGluGly (GHNEG; printed: GlyHisAsnGluGly) | 69.4 days
GlyArgAsnLeuGly (GRNLG; printed: GlyArgAsnLeuGly) | 128 days
GlyMetAsnGluGly (GMNEG; printed: GlyMetAsnGluGly) | 72.4 days
GlyTyrAsnIleGly (GYNIG; printed: GlyTyrAsnIleGly) | 306 days
GlyMetAsnProGly (GMNPG; printed: GlyMetAsnProGly) | 9300 days
GlyLeuAsnPheGly (GLNFG; printed: GlyLeuAsnPheGly) | 72.4 days
GlyProAsnGluGly (GPNEG; printed: GlyProAsnGluGly) | 92.0 days
GlyLysAsnValGly (GKNVG; printed: GlyLysAsnValGly) | 246 days
GlyMetAsnTyrGly (GMNYG; printed: GlyMetAsnTyrGly) | 74.0 days
GlyGluAsnValGly (GENVG; printed: GlyGluAsnValGly) | 268 days
GlyHisAsnAlaGly (GHNAG; printed: GlyHisAsnAlaGly) | 24.6 days
GlyThrAsnThrGly (GTNTG; printed: GlyThrAsnThrGly) | 50.0 days
GlyAlaAsnSerGly (GANSG; printed: GlyAlaAsnSerGly) | 14.9 days
GlyLeuAsnMetGly (GLNMG; printed: GlyLeuAsnMetGly) | 62.6 days
GlyTrpAsnSerGly (GWNSG; printed: GlyTrpAsnSerGly) | 15.5 days
GlyGluAsnSerGly (GENSG; printed: GlyGluAsnSerGly) | 16.4 days
GlyLysAsnGlyGly (GKNGG; printed: GlyLysAsnGlyGly) | 1.02 days
GlyIleAsnMetGly (GINMG; printed: GlyIleAsnMetGly) | 58.8 days
GlyIleAsnAmCysGly | 33.0 days

Substance | First-Order Deamidation Halftimes of GlyXxxAsnYyyGly
GlyThrAsnLysGly (GTNKG; printed: GlyThrAsnLysGly) | 57.6 days
GlySerAsnCysGly (GSNCG; printed: GlySerAsnCysGly) | 60.2 days
GlyLysAsnMetGly (GKNMG; printed: GlyLysAsnMetGly) | 60.9 days
GlyCysAsnSerGly (GCNSG; printed: GlyCysAsnSerGly) | 19.0 days
GlyThrAsnValGly (GTNVG; printed: GlyThrAsnValGly) | 237 days
GlyThrAsnTrpGly (GTNWG; printed: GlyThrAsnTrpGly) | 72.5 days
GlyValAsnArgGly (GVNRG; printed: GlyValAsnArgGly) | 67.4 days
GlyArgAsnTrpGly (GRNWG; printed: GlyArgAsnTrpGly) | 127 days
GlyGlyAsnIleGly (GGNIG; printed: GlyGlyAsnIleGly) | 287 days
GlyThrAsnCysGly (GTNCG; printed: GlyThrAsnCysGly) | 55.5 days
GlyIleAsnLeuGly (GINLG; printed: GlyIleAsnLeuGly) | 154 days
GlyLeuAsnLysGly (GLNKG; printed: GlyLeuAsnLysGly) | 60.1 days
GlyValAsnTyrGly (GVNYG; printed: GlyValAsnTyrGly) | 79.2 days
GlyPheAsnTyrGly (GFNYG; printed: GlyPheAsnTyrGly) | 75.1 days
GlyProAsnLeuGly (GPNLG; printed: GlyProAsnLeuGly) | 181 days
GlyArgAsnAmCysGly | 42.3 days
GlyIleAsnTyrGly (GINYG; printed: GlyIleAsnTyrGly) | 79.3 days
GlyCysAsnAspGly (GCNDG; printed: GlyCysAsnAspGly) | 30.6 days
GlyAspAsnTrpGly (GDNWG; printed: GlyAspAsnTrpGly) | 80.3 days
GlyArgAsnIleGly (GRNIG; printed: GlyArgAsnIleGly) | 311 days
GlySerAsnTrpGly (GSNWG; printed: GlySerAsnTrpGly) | 76.8 days
GlyHisAsnArgGly (GHNRG; printed: GlyHisAsnArgGly) | 48.9 days

same assay, conditions: pH 7.4, 37.0 ° C., 0.15 M Tris HCl; Gln pentapeptides; 52 values measured, rest derived from surface fitting

Substance | First-Order Deamidation Halftimes of GlyXxxGlnYyyGly
GlyIleGlnValGly (GIQVG; printed: GlyIleGlnValGly) | 7100 days
GlyLeuGlnValGly (GLQVG; printed: GlyLeuGlnValGly) | 6800 days
GlyMetGlnSerGly (GMQSG; printed: GlyMetGlnSerGly) | 4100 days
GlyGluGlnMetGly (GEQMG; printed: GlyGluGlnMetGly) | 5200 days
GlyPheGlnAlaGly (GFQAG; printed: GlyPheGlnAlaGly) | 6300 days
GlyLysGlnTrpGly (GKQWG; printed: GlyLysGlnTrpGly) | 10000 days
GlyCysGlnCysGly (GCQCG; printed: GlyCysGlnCysGly) | 800 days
GlyPheGlnTrpGly (GFQWG; printed: GlyPheGlnTrpGly) | 16000 days
GlyIleGlnMetGly (GIQMG; printed: GlyIleGlnMetGly) | 5100 days
GlyGluGlnCysGly (GEQCG; printed: GlyGluGlnCysGly) | 2100 days
GlyPheGlnIleGly (GFQIG; printed: GlyPheGlnIleGly) | 6400 days
GlyCysGlnLeuGly (GCQLG; printed: GlyCysGlnLeuGly) | 4800 days
GlyArgGlnGlyGly (GRQGG; printed: GlyArgGlnGlyGly) | 660 days
GlyProGlnSerGly (GPQSG; printed: GlyProGlnSerGly) | 4600 days
GlyHisGlnLysGly (GHQKG; printed: GlyHisGlnLysGly) | 4000 days
GlyThrGlnTrpGly (GTQWG; printed: GlyThrGlnTrpGly) | 9700 days
GlyTrpGlnAspGly (GWQDG; printed: GlyTrpGlnAspGly) | 8800 days
GlyGluGlnLysGly (GEQKG; printed: GlyGluGlnLysGly) | 4600 days
GlyAlaGlnThrGly (GAQTG; printed: GlyAlaGlnThrGly) | 5100 days
GlyArgGlnSerGly (GRQSG; printed: GlyArgGlnSerGly) | 4300 days
GlyIleGlnGlyGly (GIQGG; printed: GlyIleGlnGlyGly) | 620 days
GlySerGlnCysGly (GSQCG; printed: GlySerGlnCysGly) | 2100 days
GlyLeuGlnMetGly (GLQMG; printed: GlyLeuGlnMetGly) | 4800 days
GlyHisGlnGluGly (GHQEG; printed: GlyHisGlnGluGly) | 5800 days
GlyGlyGlnLysGly (GGQKG; printed: GlyGlyGlnLysGly) | 6000 days
GlyValGlnTyrGly (GVQYG; printed: GlyValGlnTyrGly) | 9700 days
GlyHisGlnAlaGly (GHQAG; printed: GlyHisGlnAlaGly) | 7200 days
GlyAlaGlnAlaGly (GAQAG; printed: GlyAlaGlnAlaGly) | 5300 days
GlyTrpGlnSerGly (GWQSG; printed: GlyTrpGlnSerGly) | 6500 days
